The record followed here is patent publication US20260317420 (published 2026).

One test concerns the target T1, rat Claudin18.1 (rat, UniProt Q5I0E5).
T1 chain: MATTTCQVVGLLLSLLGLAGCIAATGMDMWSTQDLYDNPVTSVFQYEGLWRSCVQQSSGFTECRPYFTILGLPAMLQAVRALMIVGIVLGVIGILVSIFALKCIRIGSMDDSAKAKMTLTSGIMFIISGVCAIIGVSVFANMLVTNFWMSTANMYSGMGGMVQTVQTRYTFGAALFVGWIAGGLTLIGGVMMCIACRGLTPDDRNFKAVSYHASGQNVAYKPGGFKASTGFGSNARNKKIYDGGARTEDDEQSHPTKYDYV
The test is described as follows: FACS.

Another test concerns the target T2, mouse Claudin18.1 (mouse, UniProt P56857).
T2 chain: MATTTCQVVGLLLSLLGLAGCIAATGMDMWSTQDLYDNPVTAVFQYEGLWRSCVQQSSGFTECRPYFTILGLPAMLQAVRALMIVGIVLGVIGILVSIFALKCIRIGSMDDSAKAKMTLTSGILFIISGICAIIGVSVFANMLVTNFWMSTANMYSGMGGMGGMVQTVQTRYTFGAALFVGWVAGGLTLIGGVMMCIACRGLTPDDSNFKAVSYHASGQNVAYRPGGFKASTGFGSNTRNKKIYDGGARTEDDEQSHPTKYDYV
Kind of test: FACS. A general note: A flow cytometer gives signals particle by particle.

Test [1] addresses T3, human Claudin18.2 (human, UniProt P56856). The test is described as follows: BLI, bivalent. A general note: BLI is a label-free optical method that tracks binding on a fibre tip over time.
The target of a further test is T4, human Claudin18.1 (human, UniProt P56856).
T4 chain: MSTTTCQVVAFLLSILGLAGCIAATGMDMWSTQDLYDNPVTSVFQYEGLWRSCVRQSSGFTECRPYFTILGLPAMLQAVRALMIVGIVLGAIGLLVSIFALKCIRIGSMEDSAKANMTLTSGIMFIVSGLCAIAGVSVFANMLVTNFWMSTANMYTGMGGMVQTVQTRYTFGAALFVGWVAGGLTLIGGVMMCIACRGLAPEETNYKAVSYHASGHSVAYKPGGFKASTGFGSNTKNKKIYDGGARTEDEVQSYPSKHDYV
The test is described as follows: ELISA. (An ELISA detects its analyte on a solid surface through an enzyme-linked reagent.)

Test [2] deals with T3, human Claudin18.2. The test is described as follows: BLI.
The target in a further test is T5, mouse Claudin18.2 (mouse, UniProt P56857).
T5 chain: T2 chain
Kind of test: BLI.

B1: 5103F3 BSM (SI-64M1) (antibody, V domains shown)
VH: QVQLQESGGRLIKPGEPLRLSCKTSGIDLSGFAMGWVRQAPGKGLEYIGFIDSGGGAFYATWARGRFTISRTSTNTVYLQMNSLTAEDTAVYYCARHGGNTYYYAMDPWGPGTLVTVSS
VL: ALRMTQSPSSLAATTGQRVTITCQASQSISNYLAWYQQKPGQPPKLLIYSASTLASGVPSRFKGSGSGTQFTLTISCVQCEDFATYYCQQVYSVTNIDNAFGGGTRVEIK
Turning to B1, the binding result in the test with rat Claudin18.1, with mouse Claudin18.1 and with human Claudin18.1 was “no binding” throughout. For the same molecule, the Kd stood at 0.216 nM with human Claudin18.2 [1], 1.45 nM with human Claudin18.2 [2] and 1.73 nM with mouse Claudin18.2.

B2: Zolbetuximab (SI-64C8) (antibody, V domains shown)
VH: QVQLQQPGAELVRPGASVKLSCKASGYTFTSYWINWVKQRPGQGLEWIGNIYPSDSYTNYNQKFKDKATLTVDKSSSTAYMQLSSPTSEDSAVYYCTRSWRGNSFDYWGQGTTLTVSS
VL: DIVMTQSPSSLTVTAGEKVTMSCKSSQSLLNSGNQKNYLTWYQQKPGQPPKLLIYWASTRESGVPDRFTGSGSGTDFTLTISSVQAEDLAVYYCQNDYSYPFTFGSGTKLEIKR
For B2, the Kd with human Claudin18.2 [1] was 5.31 nM; with human Claudin18.2 [2], 1.59 nM.

B3: 5208H10 (SI-64CH5) (antibody, V domains shown)
VH: QSVKESEGGLFKPTDTLTLTCTVSGFSLSTYAMSWVRQAPGNGLEWIGIIDAVGRTYYASWAKSRSTITRNTNLNTVTLKMTSLTAADTATYFCARWWDLWGQGTLVTVSS
VL: AQVLTQTASSVSAAVGGTVTINCQSSQSVYDSNDLTWYQQKPGQSPKLLIYLASTLASGVPSRFKGSGSGTQFTLTISDLECDDSATYYCAAHYNSDIYTFGGGTEVEVK
As for B3, the Kd with human Claudin18.2 [2] is 3 nM.
